{"source": "the DeepSol protein solubility set", "data": [{"assay": "soluble on expression in E. coli; label from the status in PepcDB or PDB records", "values": [{"sequence": "MSTKPEKPIWMSQEDYDRQYGSITGDESSTVSKKDSKVTANAPGDGNGSLPVLQSSSILTSKVSDLPIEAESGFKIQKRRHERYDQEERLRKQRAQKLREEQLKRHEIEMTANRSINVDQIVREHYNERTIIANRAKRNLSPIIKLRNFNNAIKYMLIDKYTKPGDVVLELGCGKGGDLRKYGAAGISQFIGIDISNASIQEAHKRYRSMRNLDYQVVLITGDCFGESLGVAVEPFPDCRFPCDIVSTQFCLHYAFETEEKARRALLNVAKSLKIGGHFFGTIPDSEFIRYKLNKFPKEVEKPSWGNSIYKVTFENNSYQKNDYEFTSPYGQMYTYWLEDAIDNVPEYVVPFETLRSLADEYGLELVSQMPFNKFFVQEIPKWIERFSPKMREGLQRSDGRYGVEGDEKEAASYFYTMFAFRKVKQYIEPESVKPN", "soluble on expression in E. coli": "soluble"}, {"sequence": "VGPKTGEENQVLVPNLNPTPENLEVVGDGFKITSSINLVGEEEADENAVNALREFLTANNIEINSENDPNSTTLIIGEVDDDIPELDEALNGTTAENLKEEGYALVSNDGKIAIEGKDGDGTFYGVQTFKQLVKESNIPEVNITDYPTVSARGIVEGFYGTPWTHQDRLDQIKFYGENKLNTYIYAPKDDPYHREKWREPYPESEMQRMQELINASAENKVDFVFGISPGIDIRFDGDAGEEDFNHLITKAESLYDMGVRSFAIYWDDIQDKSAAKHAQVLNRFNEEFVKAKGDVKPLITVPTEYDTGAMVSNGQPRAYTRIFAETVDPSIEVMWTGPGVVTNEIPLSDAQLISGIYNRNMAVWWNYPVTDYFKGKLALGPMHGLDKGLNQYVDFFTVNPMEHAELSKISIHTAADYSWNMDNYDYDKAWNRAIDMLYGDLAEDMKVFANHSTRMDNKTWAKSGREDAPELRAKMDELWNKLSSKEDASALIEELYGEFARMEEACNNLKANLPEVALEECSRQLDELITLAQGDKASLDMIVAQLNEDTEAYESAKEIAQNKLNTALSSFAVISEKVAQSFIQEALSFDLTLINPRTVKITASSEETSGENAPASFASDGDMNTFWHSKWSSPAHEGPHHLTLELDNVYEINKVKYAPRQDSKNGRITGYKVSVSLDGENFTEVKTGTLEDNAAIKFIEFDSVDAKYVRLDVTDSVSDQANGRGKFATAAEVNVHG", "soluble on expression in E. coli": "soluble"}, {"sequence": "MIYSVGNRLGNKLTGIEKAMINRHNLFKNHSITSKLIFASWSPRLHFNASLFQIEDDDILSLYDVLQDSINIKSIHKDWITHWTKECNYTLKFIENTNDIKIYEKSNYRMYVHFNDSNYQHLDYINHFDVNQRKIRRDLYDSRGFLSCSRTLTTNQKVVCEHYYTPEGTIKFQKFFNPELENSQSQLIIYNTDSQLKYFNNDQELLAFAIEKLYKNGDIFLSDKNINTAPIFNNTSETIPVLAVLHSTHVKNIDMVYESDIKNTYKHVFNNLNRYSGIIVSTKQQQLDISARINNEIPVHTIPVGYIDEHFTNLKRNNHSINNNKIISVARYSPEKQLNHQIELVSKLIKEFPNIQLHLYGFGKEEEKYKQLITEYNLENNVFLRGFRRNLSAEIQDAYMSLITSNMEGFNLGLLETITEGIPPVGYNSKYGPSELILNNENGYLINKNDKDELYNRVRNLLLDKTLRDTFSQECIKHSKAFSSKIVMKLWEDRFSTINSSYE", "soluble on expression in E. coli": "not soluble"}, {"sequence": "MGSDKIHHHHHHMTRIALTHVTTYRYGAPVTLGEHKMMFRPRDSHDLHIVEATLVLSPVAEVRWMHDVFGNSITIADFQGASTDFLRFESKILLDHFGLSEPTYPIAAYAETFPFTYDADLVADLGRTNERHYPDPDHRLDAWARRFLDEPGETATLEMLSAMNRAISAEFSYAARDTEGTQTPLETLERGSGSCRDFALLMMEAVRSLGLAARFVSGYLYDPALDGRNASGTVGAGATHAWLQVYLPGAGWVEFDPTNALVGGENLIRVAVTRDPSQAVPITGSFAGPGNAFLSMEVEVTLHRQDQNIQVA", "soluble on expression in E. coli": "not soluble"}, {"sequence": "MSGSTESKKQPRRRFIGRKSGNSNNDKLTTVAENGNEIIHKQKSRIALGRSVNHVPEDILNDKELNEAIKLLPSNYNFEIHKTVWNIRKYNAKRIALQMPEGLLIYSLIISDILEQFCGVETLVMGDVSYGACCIDDFTARALDCDFIVHYAHSCLVPIDVTKIKVLYVFVTINIQEDHIIKTLQKNFPKGSRIATFGTIQFNPAVHSVRDKLLNDEEHMLYIIPPQIKPLSRGEVLGCTSERLDKEQYDAMVFIGDGRFHLESAMIHNPEIPAFKYDPYNRKFTREGYDQKQLVEVRAEAIEVARKGKVFGLILGALGRQGNLNTVKNLEKNLIAAGKTVVKIILSEVFPQKLAMFDQIDVFVQVACPRLSIDWGYAFNKPLLTPYEASVLLKKDVMFSEKYYPMDYYEAKGYGRGETPKHAIE", "soluble on expression in E. coli": "soluble"}, {"sequence": "MLIERIYDEDLAQASYFIGCQAHNTAVVVDPRRDIAVYLDMAKKNGMEIVGVTETHIHADYLSGTRELAAATNATMYVSGEGGADWQYEFDAERICDGSEIRLGNLVLTAVHTPGHTPEHLSFLLKDGAFADEPGFMLTGDFVFAGDLGRPDLLDEAAGGVDTRFEGARQMFKSLKEKFLTLPDHIQIFPGHGSGSACGKALGSVPSTTLGYERQFAWWGKYLEADDEQGFIDELLEGQPDAPAYFGRMKRQNRQGPAIMGARELLPQLEASDLHDVIVVDTRSADEVHQGTVAGAVNIPAGNSMAKFGSWTVDPEKDSRALVLLAASQIGAMEMWDHMVRVGIDNVAGFITNFDGVDLVAPQTVSPDQLDELEYDLLLDVRNRSEVEEGYIPGALHINGASVLWNLEKLPRDGKIVSYCKSGTRSSIAASTLRNAGFDVVELQGSYDNWVRHNAQLEHHHHHH", "soluble on expression in E. coli": "not soluble"}, {"sequence": "MRIVTAAVMASTLAVSSLSHAAEVGSGDNWHPGEELTQRSTQSHMFDGISLTEHQRQQMRDLMQQARHEQPPVNVSELETMHRLVTAENFDENAVRAQAEKMANEQIARQVEMAKVRNQMYRLLTPEQQAVLNEKHQQRMEQLRDVTQWQKSSSLKLLSSSNSRSQLEHHHHHH", "soluble on expression in E. coli": "soluble"}, {"sequence": "MVGWRRMGLPADSLSDEALLALVARGDEEAFRALFRRYAGSFLALARRMGLDGAAAEDVVQEAMIRVWQKAKEFDPRRGSARAFLLTLGHHAAVDEVRRRAARPLPLEPDPEREEEAFDLPGPGLDEEGHLDRTRLGRALKALSPEERRVIEVLYYQGYTHREAASLLGLPLGTLKTWARRALSKLKEVLREP", "soluble on expression in E. coli": "soluble"}, {"sequence": "MHHHHHHSSGRENLYFQGDPRRRNILRSLRRNTKKPKPKPRPSITKATWESNYFGVPLTTVVTPEKPIPIFIERCIEYIEATGLSTEGIYRVSGNKSEMESLQRQFDQDHNLDLAEKDFTVNTVAGAMKSFFSELPDPLVPYNMQIDLVEAHKINDREQKLHALKEVLKKFPKENHEVFKYVISHLNKVSHNNKVNLMTSENLSICFWPTLMRPDFSTMDALTATRTYQTIIELFIQQCPFFFYNR", "soluble on expression in E. coli": "soluble"}, {"sequence": "FYDPLVFPSDEFDASISQVNEKINQSLAFIRKSDELLHNVNAG", "soluble on expression in E. coli": "soluble"}, {"sequence": "MRGSHHHHHHGSAHGLTDDMTMHFRMEGCVDGHKFVIEGNGNGNPFKGKQFINLCVIEGGPLPFSEDILSAAFDYGNRLFTEYPEGIVDYFKNSCPAGYTWHRSFRFEDGAVCICSADITVNVRENCIYHESTFYGVNFPADGPVMKKMTTNWEPSCEKIIPINSQKILKGDVSMYLLLKDGGRYRCQFDTIYKAKTEPKEMPDWHFIQHKLNREDRSDAKNQKWQLIEHAIASRSALP", "soluble on expression in E. coli": "soluble"}, {"sequence": "MQQEEPNKYVKELTQEKYKYGFTTEVHTDVIERGLNEDVVRLISSKKDEPEWLLEFRLKAYRHWLTLEMPTWAHLRIPEIDYQAISYYADPTKKKEGPKSMDEVDPELIKTFNKLGIPLEEQMALSGMAVDAVMDSVSVKTTFKETLMEKGIIFCSFSEAVREHPDLVKKYMGSVVGYRDNFFAALNSAVFSDGSFVYIPKGVRCPMELSTYFRINARNTGQFERTLIVADDDSYVSYLEGCTAPMRDENQLHAAIVEIVVHDRAEVKYSTVQNWYPGDAEGKGGVYNFVTKRGNCKGVDSKLSWTQVETGSAITWKYPSCILTGDNSTAEFYSVAVTNNYQQADTGTKMIHLGKNTRSTIVSKGISAGHSENSYRGLVRVAEKADNARNYSQCDSLLLGDKCGAHTFPYMDIHNETAVVEHEATTSKISEDQIFYCNQRGIPTEDAIGLIVNGYAKEVLNKLPMEFAVEAQKLLTISLEGSVG", "soluble on expression in E. coli": "not soluble"}, {"sequence": "MGSDKIHHHHHHMTNQNYLAKTTNKQYIVKFFGKGTEKLINRQDEKYNLELLKDLGLDVKNYLFDIEAGIKVNEYIESAITLDSTSIKTKFDKITPILQTIHTSAKELRGEFAPFEEIKKYESLIEEQIPYANYESVRNAVFSLEKRLADLGVDRKSCHIDLVPENFIESPQGRLYLIDWEYSSMNDPMWDLAALFLESEFTSQEEETFLSHYESDQTPVSHEKIAIYKILQDTIWSLWTVYKEEQGEDFGDYGVNRYQRAIKGLASYGGSDEK", "soluble on expression in E. coli": "not soluble"}, {"sequence": "MPSENSRPMPSFPRRRESRPWDNGNIQRLSESPRFWIPTFVGMTGCRFVGMTWCRFPYGWIRHSRAGGNLERKI", "soluble on expression in E. coli": "not soluble"}, {"sequence": "MAISSRNTLLAALAFIAFQAQAVNVTVAYQTSAEPAKVAQADNTFAKESGATVDWRKFDSGASIVRALASGDVQIGNLGSSPLAVAASQQVPIEVFLLASKLGNSEALVVKKTISKPEDLIGKRIAVPFISTTHYSLLAALKHWGIKPGQVEIVNLQPPAIIAAWQRGDIDGAYVWAPAVNALEKDGKVLTDSEQVGQWGAPTLDVWVVRKDFAEKHPEVVKAFAKSAIDAQQPYIANPDVWLKQPENISKLARLSGVPEGDVPGLVKGNTYLTPQQQTAELTGPVNKAIIDTAQFLKEQGKVPAVANDYSQYVTSRFVQ", "soluble on expression in E. coli": "soluble"}, {"sequence": "MNTFGTRLKFTSFGESHGVAVGCIIDGMPAGVKFDEEFLQNELDKRKGGSKFATPRKESDKAQVLSGVFEGYTTGHPIAIVVFNENAHSKDYDNLKDLFRPAHADFTYFYKYGIRDHRGGGRSSARESVARVAGGAVAAMLLREFDICVQSGVFGVGTFVSNLKEEEFDFEFAKKSEIFCLDPKLESDFKNEILNARNSKDSVGAAVFTKVSGMLIGLGEVLYDKLDSKLAHALMGINAVKAVEIGEGINASKMRGSCNNDALKDGKFLSNHSGGILGGISNGENLILKTYFKPTPSIFAKQESIDKFGNNLKFELKGRHDPCVGVRGSVVASAMVRLVLADCLLLNASANLNNLKNAYGLKLEHHHHHH", "soluble on expression in E. coli": "soluble"}, {"sequence": "MGSDKIHHHHHHMAQALYANVAVVNSKEHKDLKIKPINHFRYAAKIQSCPISDIEFFPCSLSHPIMFAKAEDGKIVPLALMGLERETNQFVSSEGVWKEGEYMPAFLRRYPFIMVRDPENTRMVVGLDMDAEGVNRDEGRELFDEKSEASEFAKSAMKFLTDFQEAFDRTQNFLAKMSELELFDDAVFNWEFKGVTSSFGGFMRIDEKKLDELDDETLLALTRSGHYKLIVAHLVSLRRFQRLVDWKMRPAS", "soluble on expression in E. coli": "not soluble"}, {"sequence": "MIKRNLLVIGLAVMLSACGFQLRGTGATELSVKEMDVSARNAYGPTVLQLREVLERSGVNVHAGAPYRLVLTNEQERERSATYNSGNRTAEYELTTKLDYSILGLNNLELMSDKLEVRKVYVRDGSNITGSEQEAKRAREEMRRDLVNAMVVRLQMLSPPQLDELQRKADERAQAEAAALEAARRQQAETPQQSPLEVPGN", "soluble on expression in E. coli": "not soluble"}]}]}
